Results from patent US11053313B2, “Anti-CLDN-5 antibody, and drug containing said antibody” (OSAKA UNIVERSITY, priority 2017, dated 2021).
Changes are numbered by the printed parent chain. Entries after “also recorded” stand apart in the source; their conditions may differ.

T1: mCLDN-5 (Mus musculus, UniProt O54942)
T1 construct: expressed in transfected cells; host or cells: retrovirus-infected cells
T1 sequence (O54942 1-218): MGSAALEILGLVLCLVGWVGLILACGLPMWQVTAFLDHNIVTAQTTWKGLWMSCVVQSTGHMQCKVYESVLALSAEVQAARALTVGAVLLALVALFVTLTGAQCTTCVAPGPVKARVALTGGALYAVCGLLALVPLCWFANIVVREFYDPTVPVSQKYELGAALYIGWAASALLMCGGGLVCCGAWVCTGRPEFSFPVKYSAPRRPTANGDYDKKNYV

T2: 1-1-5 (Homo sapiens, UniProt O00501, A34S/A72N/D37G/E76T/F35Y/G26A/H38D/H61Q/K48E/L36A/M29Q/M62I/Q31R/T33Y/T45A/T46M/T75S/V32I/V56S/V70L/W47Y/Y67F)
T2 construct: expressed in transfected cells; host or cells: retrovirus-infected cells (pCX4pur)
T2 sequence (O00501 1-218 G26A/M29Q/Q31R/V32I/T33Y/A34S/F35Y/L36A/D37G/H38D/T45A/T46M/W47Y/K48E/V56S/H61Q/M62I/Y67F/V70L/A72N/T75S/E76T): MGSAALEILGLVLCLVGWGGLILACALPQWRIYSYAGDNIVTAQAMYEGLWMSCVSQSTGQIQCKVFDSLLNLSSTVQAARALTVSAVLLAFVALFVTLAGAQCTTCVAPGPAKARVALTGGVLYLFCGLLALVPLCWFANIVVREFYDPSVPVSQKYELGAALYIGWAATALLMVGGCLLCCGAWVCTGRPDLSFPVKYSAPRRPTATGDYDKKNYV

T3: 5-5-1 (Homo sapiens, UniProt O00501, A162Q/K157R/L160F/Q156A/S151M/S155N/V152T)
T3 construct: expressed in transfected cells; host or cells: retrovirus-infected cells (pCX4pur)
T3 sequence (O00501 1-218 S151M/V152T/S155N/Q156A/K157R/L160F/A162Q): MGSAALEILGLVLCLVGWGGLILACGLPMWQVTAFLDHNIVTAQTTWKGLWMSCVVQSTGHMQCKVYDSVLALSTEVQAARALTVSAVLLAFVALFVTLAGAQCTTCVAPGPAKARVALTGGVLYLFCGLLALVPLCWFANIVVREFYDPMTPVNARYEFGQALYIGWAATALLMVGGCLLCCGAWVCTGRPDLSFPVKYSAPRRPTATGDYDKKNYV

T4: hCLDN-5 (Homo sapiens, UniProt O00501)
T4 construct: expressed in transfected cells; host or cells: HT-1080 human fibrosarcoma cells infected with a pCX4pur-derived retrovirus (HT-1080/hCLDN-5)
T4 sequence (O00501 1-218): T3 sequence (O00501 1-218 S151M/V152T/S155N/Q156A/K157R/L160F/A162Q) with M151S, T152V, N155S, A156Q, R157K, F160L, Q162A

B1: M48: mouse anti-CLDN-5 monoclonal antibody, IgG3/K; VH SEQ ID NO: 9, VL SEQ ID NO: 10; example of antibody E (antibody, V domains shown)
VH: QAYLQQSGAELVRPGASVKMSCKASGYTFTSYNMHWVKKTRRQGLEWIGAISPGNGNTSYNQKFKGKATLTVDKSSSTAYMQLSSLTSEDSAVYFCARDDGYYGALDYWGQGTSVTVSS
VL: DIVLTQSPATLSVTPGESVSLSCRASQGISTSIHWYQQKSNESPRLLIRYASQSISRIPSRFSGSGSGTDFTLTINGVESEDLSVYYCQQSYNLPLTFGSGTKLEI
modifications: M48 VH; M48 VL
B2: R9: rat anti-CLDN-5 monoclonal antibody, IgG2b/K; VH SEQ ID NO: 17, VL SEQ ID NO: 18; example of antibody I (antibody, V domains shown)
VH: QVTLKESGPGILQPSHTLSLTCSFSGFSLNTYGVGVNWIRQPSGKGLEWLASIWWHGKTYINPSLKNRLTVSKDPSNNQAFLEVTNVDPADTATYYCAHARAQLLDYWGQGVMVTVSS
VL: DIVMTQTPSSQAVSAGEKVTMSCKSSQSLLYSGDQKNYLAWYQQKPGQSPKLLIYLTSTRESGVPDRFIGSGSGTDFTLTISSVQAEDLADYYCQQHYSYPLTFGSGTKLEI
modifications: R9 VH; R9 VL
B3: R14: rat anti-CLDN-5 monoclonal antibody, IgG2a/K; VH SEQ ID NO: 21, VL SEQ ID NO: 22; example of antibody K (antibody, V domains shown)
VH: QVTLKESGPGILQPSHTLSLTCSFSGFSLSTYGMGVSWIRQPSGKGLEWLASIWWNGRTYTNPSLMSRLTVSKDTSTNQAFLRVTSVETADTATYYCAHTPYDYSNLGWFTYWGQGTLVTVSS
VL: B2 VL with V3L, M21V, N37S, T57A, E61K, S99T
modifications: R14 VH; R14 VL

Key:
[1] = target: T1, mCLDN-5; experiment: Evaluation of CLDN specificity by FACS, mCLDN-5-expressing cells; type: binding; settings: hybridoma culture supernatant as primary antibody, FIG. 1B
[2] = system: hCLDN-5; experiment: Epitope analysis by hCLDN-5/hCLDN-1 chimeric CLDN (FACS), loop assignment; type: binding, human; settings: antibody concentration 5 μg/mL, hCLDN-5/hCLDN-1 chimeras
[3] = target: T2, 1-1-5; experiment: Epitope analysis FACS, chimeric protein 1-1-5; type: binding; settings: antibody concentration 5 μg/mL; first extracellular loop substituted with hCLDN-1
[4] = target: T3, 5-5-1; experiment: Epitope analysis FACS, chimeric protein 5-5-1; type: binding; settings: antibody concentration 5 μg/mL; second extracellular loop substituted with hCLDN-1
[5] = system: hCLDN-5; experiment: Epitope analysis by hCLDN-5/mCLDN-5 chimeric CLDN (D68E, T75A, S151T, TM; FACS); type: binding, human; settings: antibody concentration 5 μg/mL, mutants D68E
[6] = system: MDCKII/hCLDN-5; experiment: TEER of CLDN-5 compulsory expression system, MDCKII/hCLDN-5; type: cell-based, human; settings: MDCKII/hCLDN-5, FIG. 7B
[7] = system: blood-brain barrier simulation system; experiment: Material permeability of blood-brain barrier simulation system (monkey BBB kit); type: cell-based; settings: 12 hours after addition, FIG. 13
[8] = system: ZO-1; experiment: ZO-1 localization by immunostaining in blood-brain barrier simulation system; type: cell-based; settings: monkey BBB kit, 12 hours after addition, FIG. 14
[9] = system: CLDN-5; experiment: CLDN-5 localization by immunostaining in blood-brain barrier simulation system; type: cell-based; settings: monkey BBB kit, 12 hours after addition, FIG. 14
[10] = target: T1, mCLDN-5; experiment: Cross-species activity FACS, mCLDN-5-expressing cells; type: binding; settings: antibody concentration 5 μg/mL, FIG. 2
[11] = target: T4, hCLDN-5; experiment: Western blotting operability, HT-1080/hCLDN-5 lysate; type: binding; settings: SDS-PAGE under reducing condition, antibody concentration 10 μg/mL, FIG. 5
Procedure: FIG. 5 illustrates western blotting images showing the CLDN-5 primary structure recognizability of the anti-CLDN-5 antibodies obtained in Example 3-6). The primary antibodies used are shown at the top of the images, and the used cells are shown under the primary antibodies. The names of proteins represented by bands are shown on the left side of the images.
Cell lysates were prepared from HT-1080/mock and HT-1080/hCLDN-5 obtained in Example 1-2), and the lysates were separated by SDS-PAGE under a reducing condition. By using the antibodies (antibody concentration: 10 μg/mL) obtained in Example 1 as primary antibodies, western blotting was performed according to the conventional method. As primary antibodies, commercial monoclonal antibodies (4C3C2, Invitrogen, 35-2500) recognizing the C-terminal of CLDN-5 were used as positive control, and β actin antibodies (Sigma Aldrich, A1978) were used as loading control. The results are illustrated in FIG. 5.

Molecule	binding capacity to mCLDN-5 [1]	extracellular loop of CLDN-5 recognized [2]	recognition of 1-1-5 [3]	recognition of 5-5-1 [4]	portion of hCLDN-5 recognized [5]	reduction in TEER [6]	4 kDa FITC-dextran permeability of the blood-brain barrier simulation system [7]	localization properties of ZO-1 [8]	localization properties of CLDN-5 in the intercellular space [9]	binding capacity to mCLDN-5 [10]	recognition of linear peptide (western blotting operability) [11]
B1	extremely low	second extracellular loop	capable of recognizing	incapable of recognizing	domain around the 151st amino acid from the N-terminal present in the second extracellular loop	greatly reducing TEER	exhibited an activity of improving	did not change	reduced		
B2	extremely low	second extracellular loop	capable of recognizing	incapable of recognizing	domain around the 151st amino acid from the N-terminal present in the second extracellular loop	greatly reducing TEER	exhibited an activity of improving	did not change	reduced	extremely low	strongly recognized
B3		second extracellular loop	capable of recognizing	incapable of recognizing	three-dimensional structure created by the transmembrane domain of hCLDN-5; also recorded: domain around the 151st amino acid from the N-terminal present in the second extracellular loop						weakly recognized
